Results on 2 substances are retold here after doi:10.1101/343756.

In test [1] the target is T1, human ETA receptor (human) (UniProt P25101).
T1 sequence: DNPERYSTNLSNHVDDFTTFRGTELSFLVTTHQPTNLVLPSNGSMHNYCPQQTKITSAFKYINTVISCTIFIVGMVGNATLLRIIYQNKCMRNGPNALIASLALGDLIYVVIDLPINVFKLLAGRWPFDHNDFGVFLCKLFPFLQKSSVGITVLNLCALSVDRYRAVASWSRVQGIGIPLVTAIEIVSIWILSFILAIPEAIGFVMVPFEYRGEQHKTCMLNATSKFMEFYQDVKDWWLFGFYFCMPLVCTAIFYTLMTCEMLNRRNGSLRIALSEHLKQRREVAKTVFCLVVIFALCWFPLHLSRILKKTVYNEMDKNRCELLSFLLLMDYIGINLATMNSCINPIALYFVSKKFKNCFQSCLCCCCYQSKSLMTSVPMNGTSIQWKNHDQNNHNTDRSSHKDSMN

Test [2] deals with T2, human ETA receptor fused to SmBiT (ETA-SmBiT) (human) (UniProt P25101).
T2 sequence: T1 sequence

For test [3], the target named is human ETB receptor L252H I254T double mutant, construct with an internal FLAG epitope tag (human) (UniProt P24530).
The target of test [4] is human ETB receptor, wild type, construct with an internal FLAG epitope tag (human) (UniProt P24530).
The target of test [5] is human ETB receptor, wild type, fused to SmBiT (ETB-SmBiT) (human) (UniProt P24530).
The target of test [6] is thermostabilized human ETB receptor (ETB-Y5), construct with an internal FLAG epitope tag (human) (UniProt P24530).
The target of test [7] is thermostabilized human ETB receptor (ETB-Y5) fused to SmBiT (human) (UniProt P24530).

For the substance “endothelin-3 (from UniProt P14138 97-117) (peptide)”, the EC50 against that of ET-1, TGFα shedding assay in test [1] came to 5 fold. In test [2], this substance gave an EC50 against that of ET-1, NanoBiT β-arrestin recruitment assay of 5 fold.

“IRL1620 (N-Suc-[E9, A11, 15] ET-1(8-21)) (peptide)” returned a change of EC50 against the wild type receptor, TGFα shedding assay in test [3] of 2 fold. For the same substance, the AP-TGFα release (TGFα shedding assay), no activation at the concentration tested in test [1] was greater than 320 nM. Further, in test [4], the EC50, AP-TGFα release (TGFα shedding assay, G-protein activation), HEK293 cells was determined as 0.11 nM. Also, the Emax, TGFα shedding assay, percent of that of ET-1 in test [4] worked out at 88%; in test [6], 84%. Also, the figures for the Emax, NanoBiT β-arrestin recruitment assay, percent of that of ET-1 in test [5] and in test [7] were 87% and 85%, respectively.
